B1: HDV Ribozyme (parent)
chain: GGCCGGCAUGGUCCCAGCCUCCUCGCUGGCGCCGGCUGGGCAACAUUCCGAGGGGACCGUCCCCUCGGUAAUGGCGAAUGGGACCCA

Variants of: B1
Assay: self-cleavage, relative activity (ratio to wild type); higher = more cleavage; co-transcriptional

Variant | self-cleavage
GGCCUGCAUGGUCCCAGCCUCCUCGCUGGCGCCAGCUGGGCAACAUUCCGAGGGGACCGUCCCCUCGGUAAUGGCGAAUGGGACCCA [G5U G34A] | 0.0875
GGCGGGCAUGGUCCCAGCCUCCUCGCUGGCGCCGGCUGGGCAACAUUCCGAGGGGACCGUCCCCUCGGUAAUGGCGAAUGGGACGCA [C4G C85G] | 0.332
GGCCGGCAUGGUCCCAGCCUCCUCGCUGGCGCCGGAUGGGCAACAUUCCGAGGGGACCCUCCCCUCGGUAAUGGCGAAUGGGACCCA [C36A G59C] | 0.0978
GGCCGGCAUGGUCUCAGCCUCCUCGCUGGCGCCGGCUGGGCAACAUUCCGAGGGGAGCGUCCCCUCGGUAAUGGCGAAUGGGACCCA [C14U C57G] | 0.787
GGCCGGCAUGGUCCCAGCCUCCUCGCUGGCGCCGGCUGGGGAACAUUCCGAGGGGACCGUCCCCUCGGUAAUCGCGAAUGGGACCCA [C41G G73C] | 0.877
GGCCGGCAUAGUCCCAGCCUCCUCGCUGGCGCCGGCUGGGCAACAUUCCGAGGGGACCGUCCCCUCGGUAAUUGCGAAUGGGACCCA [G10A G73U] | 0.159
GGCCGGCAUGGUCUCAGCCUCCUCGCUGGCGCCGGCCGGGCAACAUUCCGAGGGGACCGUCCCCUCGGUAAUGGCGAAUGGGACCCA [C14U U37C] | 1.32
GGCCGGCAUGGUCCCAGCCUCCUCGCUGGCGCCGGCUGGGCAACAUUCCGAGGGGACCGGCCCCUCUGUAAUGGCGAAUGGGACCCA [U60G G67U] | 1.07
GGCCGGCAUGGUCCCAGCCUCCUCGCUGGCGCCGGCUGGACAACAUUCCGAGGGGACCGUCCCCUCGGUACUGGCGAAUGGGACCCA [G40A A71C] | 0.485
GGCCGGCAUGGUCCGAGCCUCCUCGCUGGCGCCGGCUGGGCAACAUUCCGAGGGGAUCGUCCCCUCGGUAAUGGCGAAUGGGACCCA [C15G C57U] | 0.554
GGCCGGCAUGGUCCCAGCCUCCUCGCUGGCGCCGGGUGGGCAACAUUCCGAGGGGACCGUCCCCUCGGAAAUGGCGAAUGGGACCCA [C36G U69A] | 0.229
GGCCGGCAGGGUCCCAGCCUCCUCGCUGGCGCCGGCUGGGCAACAUACCGAGGGGACCGUCCCCUCGGUAAUGGCGAAUGGGACCCA [U9G U47A] | 1.16
GGCCGGCAUGGUCCCAGCCUCCUCGCUCGCGCCGGCUGGGCAACAUUCCGAGGGGACCGUCCCCUUGGUAAUGGCGAAUGGGACCCA [G28C C66U] | 0
GGCCGGCAUGGUCCCAGCCUCCUAGCUGGCGCCGGCUGGGCAACAUUCCGAGGGGACCGUCCCCUCGGCAAUGGCGAAUGGGACCCA [C24A U69C] | 0.712
GGCCGGCUUGGUCCCAGCCUCCUCGCUGGCGCCGGCUGGGCAACAUUCCGAGGGGACCGUCCCCUCGGUAAUGGCUAAUGGGACCCA [A8U G76U] | 0.707
GGCCGGCCUGGUCCCAGCCUCUUCGCUGGCGCCGGCUGGGCAACAUUCCGAGGGGACCGUCCCCUCGGUAAUGGCGAAUGGGACCCA [A8C C22U] | 0.426
GGCCGGCAUGGUUCCAGCCUCCUCGCUGGCGCCGGCUGGGCAACAUUCCGAGGGGCCCGUCCCCUCGGUAAUGGCGAAUGGGACCCA [C13U A56C] | 0.677
GGCCGGCAUGGUCCCAGCCUCCUCGCUGGCGCCGGGUGGGCAACAUGCCGAGGGGACCGUCCCCUCGGUAAUGGCGAAUGGGACCCA [C36G U47G] | 0
GGCCGGCAUGGUCGCAGCCUCCACGCUGGCGCCGGCUGGGCAACAUUCCGAGGGGACCGUCCCCUCGGUAAUGGCGAAUGGGACCCA [C14G U23A] | 0.68
GGCCGGCAUGGUCCCAGCCUCCUCGCUGGCGCCGGCUGGGCAACAUUCCGAGGGGACCGUCCCCUCGGUAAAGGCAAAUGGGACCCA [U72A G76A] | 0.759
GGCCGGCAUGGUCCCAGCCUCCUCGCAGGCGCCGGCUGGGCAACAUUCCCAGGGGACCGUCCCCUCGGUAAUGGCGAAUGGGACCCA [U27A G50C] | 0.656
GGCCGGCAUGGUCCCAGCCUCCUCGCUGGCGCCGGCUGGGCAACAUUCCGAGGGGACCGUCCCCUCGGUGAUGGCGAAUGGGACCCG [A70G A87G] | 1.01

Variant | self-cleavage
GGCCGGCAUGGUCCCAGCCUCCUCGCGGGCGCCGGCUGGGCAACAUUCCGAGGGGACCGUCCCCUCGGUAAUGGGGAAUGGGACCCA [U27G C75G] | 0.119
GGCCGGCAUGGUCCCAGCUUCCUCGCUGGCGCCGGCUGGGCAACAUUCCGAGGGGAGCGUCCCCUCGGUAAUGGCGAAUGGGACCCA [C19U C57G] | 0.089
GGCCGGCAUGGUCCCAGCCUCCUCGCUGGCGCCGGCUGGGCAACAUUCCGAGGGGACCGUCCCCUCGGUAAUGGGGAAUGGGAGCCA [C75G C84G] | 0.282
GGCCGGCAUUGUCCCAGCCUCCUCGCUGGCGACGGCUGGGCAACAUUCCGAGGGGACCGUCCCCUCGGUAAUGGCGAAUGGGACCCA [G10U C32A] | 0.1
GGCCGGCAUGGUCCCAGCCUCCUCGCUGGCGCCGGCUGGGCAACAUUCCGAGGGGACCGUCCCCCCGUUAAUGGCGAAUGGGACCCA [U65C G68U] | 0.831
GGCCGGCAUGGUCCCAGCCUCCUCGUUGGCGCCGGCUGGGCAACAUUCCGAGGCGACCGUCCCCUCGGUAAUGGCGAAUGGGACCCA [C26U G54C] | 1.03
GGUCGGCAUGGUCCCAGCCUCCUCGCUGGCGCCGGCUGGGCAACAUUCCGAGGGGACCGUCCCCUCAGUAAUGGCGAAUGGGACCCA [C3U G67A] | 0.822
GGGCGGCAUGGUCCCAGCCUCCUCGCUGGCGCCGGCUGGGCAACAUUCCGAGGGAACCGUCCCCUCGGUAAUGGCGAAUGGGACCCA [C3G G55A] | 0.76
GGCCGGCAUGGUCCCAGCCUCCUCGAUGUCGCCGGCUGGGCAACAUUCCGAGGGGACCGUCCCCUCGGUAAUGGCGAAUGGGACCCA [C26A G29U] | 0.032
GGCCGGCAUGGUCCCAGCCCGCUCGCUGGCGCCGGCUGGGCAACAUUCCGAGGGGACCGUCCCCUCGGUAAUGGCGAAUGGGACCCA [U20C C21G] | 0
GGCCGGCAUGGUCCCAGCCUCCUCGCUGGCGCCGGCUGGGCAACAUUCCGAGGGGACCGACCCCUCGGUAAUGGCGAAUGGGACCUA [U60A C86U] | 0.831
GGCCGGCAGGGUCCCAGCCUCCUCGCUGGCGCCGGCUGGGCAACAUUCCGAGGGGACCGUCCCCUCGGUAAUGGCGAAUGGGAUCCA [U9G C84U] | 0.831
GGCCGGCAUGGUCCCAGCCUCCUCGCUGGGGCCGGCUGGGCAACAUUCCGAGGGGACCGUCCCCUCGGUAAUGGCGAAUCGGACCCA [C30G G80C] | 0.0462
GGCCGCCAUGGUCCGAGCCUCCUCGCUGGCGCCGGCUGGGCAACAUUCCGAGGGGACCGUCCCCUCGGUAAUGGCGAAUGGGACCCA [G6C C15G] | 0
GGCCGGCAUGGUCCCAGCCUUCUCGCUGGCGCCGGCUGGGCAACAUUCCGAGGGGACCGUCCCCUCGGGAAUGGCGAAUGGGACCCA [C21U U69G] | 0.19
GGCCGGCAUGGUCCCAGCCUCCUCGCUGGCGCCGGCUGGGCAACAUUCCGAGGGGACCGUCCCCGCGGUCAUGGCGAAUGGGACCCA [U65G A70C] | 0.601
GGCCGGCAUGGUCCCAGCCUCCUCGCUGGCGCCGGCUGGGCAACGUUCCGAGGCGACCGUCCCCUCGGUAAUGGCGAAUGGGACCCA [A45G G54C] | 0.65
GGUCGGCAUGGUCCCAGCCUCCUCGCUGGCGCCGGCUGGGCAACAUUCCGAGGGGACCGUCCCCUCGGUAAUGCCGAAUGGGACCCA [C3U G74C] | 0.0712
GGCCGGCAUGGUCCCAGCCUCCUCGCUGGCGCCGGCUGGGCAACAUUCCGAGGGGACCGUACCCUCGGUAAUGCCGAAUGGGACCCA [C61A G74C] | 0.315
GGCCGGCAUGGUCCCAGCCUCCUCGCUGGCGCCGGCUGGGCAACAUUGCGAGGGCACCGUCCCCUCGGUAAUGGCGAAUGGGACCCA [C48G G55C] | 0.851
GGCCGGCAUGGUCCCAGCCUCCUCGCUGGCGCCGGCUGGGCAACAUUCCGAGGGGACCGUCCCGUCGGUAAUGGCGACUGGGACCCA [C64G A78C] | 0.269
GGCCGGCAUGGUCCCAACCUCCUCGCUGGCGCCGGCUGGGCAACAUUCCGAGGGGACCGUCCCCUCGGUAAUGGAGAAUGGGACCCA [G17A C75A] | 0.128

Variant | self-cleavage
GGCCGGCAGGGUCCCAGCCUCCUCGCUGGCGCCGGCUGGGCAACAUUCCGAGGGGACCGUCCCCUCGGUAAUGGCGAAUGGGACCCC [U9G A87C] | 0.969
GGCCGGCAUGGUCCCAGCCUCCUCGCUGGCGCGAGCUGGGCAACAUUCCGAGGGGACCGUCCCCUCGGUAAUGGCGAAUGGGACCCA [C33G G34A] | 0.0831
GGCCGGCAUGGUCCCAGCCUCCUCGCUGGCGCCGGCUGGGAAACAUUCCGAGGGGACCGUCACCUCGGUAAUGGCGAAUGGGACCCA [C41A C62A] | 0.77
AGCCGGCAUGGUCCCAGCCUCCUCGCUGGCGCCGGCUGGGCAACAUUCCGAGGGGACCGUCCCCUCGGUAAUGGCGAAUGGGACCUA [G1A C86U] | 0.19
CGCCGGCAUGGUCCCAGCCUCCUCGCUGGCGCCGGCUGGGCAACAUUCCGAGGGGACCGUCCCCUCGGUAAUGGCGAAUGGGACUCA [G1C C85U] | 0.266
GGCCGGCAUGGUCCCAGCCUCCUCGCUGGCGCCGGCUGGGCAACAUUCCGAGGGGACCGUCCCCUCGGUAAUGGCGAAUGGAAUCCA [G82A C84U] | 0.215
GGCCGGCAUGGACCGAGCCUCCUCGCUGGCGCCGGCUGGGCAACAUUCCGAGGGGACCGUCCCCUCGGUAAUGGCGAAUGGGACCCA [U12A C15G] | 0
GGCCGGCAUGGUCCCAGCCUCCUGGCUGGCGCCGGCUGGGCAACAUUCCGAGGGGACCGUCCCCUCGGUAAUGGCGAAUGGUACCCA [C24G G82U] | 0.0302
GGCCGGCAUGGUCCCAGCCUCCUCGCUGGCGCCGGCUGGGCAACAUUCCGUGGGGACCGUCCCCUCGGUAAUGGCGAAUGCGACCCA [A51U G81C] | 0.407
GCCCGGCAUGGUCCCAGCCUCCUCGCUGGCGCCGGCUGGGCAACAUUCCGAGGGGACCGUCCUCUCGGUAAUGGCGAAUGGGACCCA [G2C C63U] | 0
GGCCGGCAUGUUCCCAGCCUCCUCGCUGGCGCCGGCUGGGCAACAUUCCGAGGGGUCCGUCCCCUCGGUAAUGGCGAAUGGGACCCA [G11U A56U] | 0.391
GGCCGGCAUGAUCCCAGCCUCCUCGCUGGCGCCGGCUGGGCAACACUCCGAGGGGACCGUCCCCUCGGUAAUGGCGAAUGGGACCCA [G11A U46C] | 0.166
GGCCGGCCUGGUCCCAGCCUCCUCGCUGGCGCCGGCUGGGCAACAUUCCGAGAGGACCGUCCCCUCGGUAAUGGCGAAUGGGACCCA [A8C G53A] | 0.846
GGCCGGCAUGGUCCCAGCCUCCUCGCUGGCGCCGGCUGGGCAACAUUCCGAGGGGACCGUCCCCUUGGUAAUGGCGAAGGGGACCCA [C66U U79G] | 0.453
GGCCGGCAUGGUCCCACCCUCCUCGCUGGCGCCGGCUGGGCAACAUUCCGAGGGGACCGCCCCCUCGGUAAUGGCGAAUGGGACCCA [G17C U60C] | 0.208
GGCCGGCAUGGUCCCAGCCUCCUCGCUGGCGCCGGCUGGGCAACAUUCCGAGGGGACCGUCGCGUCGGUAAUGGCGAAUGGGACCCA [C62G C64G] | 0.427
GGCCGGCAUGGUCCCAGCCUCCUCGCUGGCGCCGGCUGGGCAACAUUCCGAGGGGGCCGUCCCCUCGGGAAUGGCGAAUGGGACCCA [A56G U69G] | 0.831
GGCCGGCAUGGUCCCCGCCUCCUCGCUGGCGCCGGCUGGGCAACAUUCCGAGGGGACCGUCCCCUCGGUAAUGGCGAAUGGUACCCA [A16C G82U] | 0.201
GGCCGGCAUGGUCCCAGCCUCCUCGCUGGCGCCCGCUGGGCAACAUUCCGAGGGGACCGUCCCCUCGGUAAUGGCGAGUGGGACCCA [G34C A78G] | 0.0755
GGCCGGCAUGGUCCCAGCCUCCUCGCUGGCGCUGGCUGGGCAACAUUCCGAGGGGACCGUCCUCUCGGUAAUGGCGAAUGGGACCCA [C33U C63U] | 0.845

Reference: the RNAGym collection of RNA variant scans (doi:10.7554/elife.80360)
